What follows are substances tested against chicken type I interleukin-1 receptor (chicken) (assay: SPR; BIAcore 3000, 25 °C; chicken IL-1RI (5 μg/ml in 10 mM sodium acetate, pH 5.5) immobilised on a CM5 chip by amine coupling (~370 RU); IL-1β or mutant flowed at 30 μl/min in 10 mM HEPES pH 7.2, 150 mM NaCl, 0.001% Tween-20; 90 s association and dissociation; 1:1 Langmuir fit).

Row | Kd [nM] | Substance
1 | 0.37 | chicken interleukin-1 beta mutant E118K (ligand)
2 | 0.23 | chicken interleukin-1 beta mutant T117A (ligand)
3 | 0.12 | wild-type chicken interleukin-1 beta (ligand)
